From the supplement of paper PMC10567573

B1: RHOBTB3 (parent)
chain: GGADIIVIKYNVNDKFSFHEVKDN
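Note: lentivirally expressed fusions sorted by FACS into six bins by GFP to DsRed ratio, PSI derived from sequencing read proportions per bin multiplied by bin number.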

Variants of: B1
Test: protein stability index of a GFP-peptide fusion (GPS, HEK-293T) (PSI 1-6); higher = more stable
Conditions: c terminus: a fixed tail appended
GGASIIVIKYNVNDKFSFHEVKDN [D4S] gave a protein stability index of 2.66.
Variant GGAEIIVIKYNVNDKFSFHEVKDN [D4E] has a protein stability index of 4.16.
With GGAIIIVIKYNVNDKFSFHEVKDN [D4I] the protein stability index was 3.04.
GGANIIVIKYNVNDKFSFHEVKDN [D4N] gave a protein stability index of 2.47.
With GGAHIIVIKYNVNDKFSFHEVKDN [D4H] the protein stability index was 2.21.
With GGAPIIVIKYNVNDKFSFHEVKDN [D4P] the protein stability index was 3.07.
GGAAIIVIKYNVNDKFSFHEVKDN [D4A] showed a protein stability index of 2.91.
GGATIIVIKYNVNDKFSFHEVKDN [D4T] showed a protein stability index of 3.79.
In the case of GGAKIIVIKYNVNDKFSFHEVKDN [D4K], the protein stability index is reported as 4.09.
For GGAMIIVIKYNVNDKFSFHEVKDN [D4M], the protein stability index was 3.48.
For GGAVIIVIKYNVNDKFSFHEVKDN [D4V], the protein stability index was 3.66.
With GGAGIIVIKYNVNDKFSFHEVKDN [D4G] the protein stability index was 3.68.
GGARIIVIKYNVNDKFSFHEVKDN [D4R] showed a protein stability index of 4.21.
Work on GGAFIIVIKYNVNDKFSFHEVKDN [D4F] yielded a protein stability index of 1.97.
With GGACIIVIKYNVNDKFSFHEVKDN [D4C] the protein stability index was 2.96.
GGAWIIVIKYNVNDKFSFHEVKDN [D4W] showed a protein stability index of 2.41.
GGALIIVIKYNVNDKFSFHEVKDN [D4L] showed a protein stability index of 1.8.
For GGADSIVIKYNVNDKFSFHEVKDN [I5S], the protein stability index was 3.31.
For GGADYIVIKYNVNDKFSFHEVKDN [I5Y], the protein stability index was 1.78.
Work on GGADMIVIKYNVNDKFSFHEVKDN [I5M] yielded a protein stability index of 2.68.
For GGADWIVIKYNVNDKFSFHEVKDN [I5W], the protein stability index was 2.59.
GGADHIVIKYNVNDKFSFHEVKDN [I5H] showed a protein stability index of 2.39.
With GGADKIVIKYNVNDKFSFHEVKDN [I5K] the protein stability index was 2.67.
GGADTIVIKYNVNDKFSFHEVKDN [I5T] showed a protein stability index of 2.47.
GGADGIVIKYNVNDKFSFHEVKDN [I5G] showed a protein stability index of 2.82.
For GGADQIVIKYNVNDKFSFHEVKDN [I5Q], the protein stability index was 3.45.
GGADEIVIKYNVNDKFSFHEVKDN [I5E] showed a protein stability index of 3.59.
Work on GGADLIVIKYNVNDKFSFHEVKDN [I5L] yielded a protein stability index of 3.18.
In the case of GGADAIVIKYNVNDKFSFHEVKDN [I5A], the protein stability index is reported as 1.81.
Work on GGADVIVIKYNVNDKFSFHEVKDN [I5V] yielded a protein stability index of 1.43.
GGADPIVIKYNVNDKFSFHEVKDN [I5P] showed a protein stability index of 3.58.
GGADDIVIKYNVNDKFSFHEVKDN [I5D] gave a protein stability index of 4.15.
With GGADNIVIKYNVNDKFSFHEVKDN [I5N] the protein stability index was 3.69.
GGADFIVIKYNVNDKFSFHEVKDN [I5F] showed a protein stability index of 1.78.
In the case of GGADRIVIKYNVNDKFSFHEVKDN [I5R], the protein stability index is reported as 2.34.
Work on GGADCIVIKYNVNDKFSFHEVKDN [I5C] yielded a protein stability index of 1.74.
GGADIIQIKYNVNDKFSFHEVKDN [V7Q] gave a protein stability index of 2.31.
Variant GGADIIRIKYNVNDKFSFHEVKDN [V7R] has a protein stability index of 1.67.
GGADIIDIKYNVNDKFSFHEVKDN [V7D] gave a protein stability index of 4.15.
Work on GGADIISIKYNVNDKFSFHEVKDN [V7S] yielded a protein stability index of 2.17.
GGADIIGIKYNVNDKFSFHEVKDN [V7G] showed a protein stability index of 2.5.
In the case of GGADIIHIKYNVNDKFSFHEVKDN [V7H], the protein stability index is reported as 2.28.
Work on GGADIICIKYNVNDKFSFHEVKDN [V7C] yielded a protein stability index of 1.79.
For GGADIIPIKYNVNDKFSFHEVKDN [V7P], the protein stability index was 4.13.
Work on GGADIIKIKYNVNDKFSFHEVKDN [V7K] yielded a protein stability index of 2.33.
GGADIIMIKYNVNDKFSFHEVKDN [V7M] showed a protein stability index of 2.06.
Work on GGADIIFIKYNVNDKFSFHEVKDN [V7F] yielded a protein stability index of 3.21.
In the case of GGADIITIKYNVNDKFSFHEVKDN [V7T], the protein stability index is reported as 1.6.
GGADIIIIKYNVNDKFSFHEVKDN [V7I] showed a protein stability index of 2.46.
GGADIILIKYNVNDKFSFHEVKDN [V7L] gave a protein stability index of 2.3.
For GGADIINIKYNVNDKFSFHEVKDN [V7N], the protein stability index was 2.85.
GGADIIAIKYNVNDKFSFHEVKDN [V7A] gave a protein stability index of 2.17.
Work on GGADIIEIKYNVNDKFSFHEVKDN [V7E] yielded a protein stability index of 3.28.
Variant GGADIIYIKYNVNDKFSFHEVKDN [V7Y] has a protein stability index of 2.29.
Variant GGADIIWIKYNVNDKFSFHEVKDN [V7W] has a protein stability index of 1.52.
With GGADIIVNKYNVNDKFSFHEVKDN [I8N] the protein stability index was 4.41.
In the case of GGADIIVHKYNVNDKFSFHEVKDN [I8H], the protein stability index is reported as 3.35.
GGADIIVGKYNVNDKFSFHEVKDN [I8G] showed a protein stability index of 2.92.
GGADIIVMKYNVNDKFSFHEVKDN [I8M] gave a protein stability index of 1.89.
Variant GGADIIVDKYNVNDKFSFHEVKDN [I8D] has a protein stability index of 3.81.
GGADIIVEKYNVNDKFSFHEVKDN [I8E] showed a protein stability index of 4.25.
GGADIIVLKYNVNDKFSFHEVKDN [I8L] showed a protein stability index of 1.47.
Variant GGADIIVFKYNVNDKFSFHEVKDN [I8F] has a protein stability index of 1.44.
In the case of GGADIIVPKYNVNDKFSFHEVKDN [I8P], the protein stability index is reported as 1.32.
Work on GGADIIVCKYNVNDKFSFHEVKDN [I8C] yielded a protein stability index of 2.22.
GGADIIVAKYNVNDKFSFHEVKDN [I8A] showed a protein stability index of 1.78.
With GGADIIVKKYNVNDKFSFHEVKDN [I8K] the protein stability index was 3.96.
Variant GGADITVIKYNVNDKFSFHEVKDN [I6T] has a protein stability index of 2.45.
In the case of GGADINVIKYNVNDKFSFHEVKDN [I6N], the protein stability index is reported as 3.83.
For GGADIQVIKYNVNDKFSFHEVKDN [I6Q], the protein stability index was 3.98.
For GGADIGVIKYNVNDKFSFHEVKDN [I6G], the protein stability index was 4.03.
In the case of GGADIMVIKYNVNDKFSFHEVKDN [I6M], the protein stability index is reported as 1.92.
In the case of GGADIFVIKYNVNDKFSFHEVKDN [I6F], the protein stability index is reported as 1.5.
Variant GGADIVVIKYNVNDKFSFHEVKDN [I6V] has a protein stability index of 1.77.
In the case of GGADIPVIKYNVNDKFSFHEVKDN [I6P], the protein stability index is reported as 4.12.
With GGADIAVIKYNVNDKFSFHEVKDN [I6A] the protein stability index was 3.21.
GGADIHVIKYNVNDKFSFHEVKDN [I6H] showed a protein stability index of 2.92.
With GGADIYVIKYNVNDKFSFHEVKDN [I6Y] the protein stability index was 2.23.
With GGADIKVIKYNVNDKFSFHEVKDN [I6K] the protein stability index was 3.
In the case of GGADISVIKYNVNDKFSFHEVKDN [I6S], the protein stability index is reported as 3.63.
In the case of GGADIDVIKYNVNDKFSFHEVKDN [I6D], the protein stability index is reported as 4.07.
Work on GGADIWVIKYNVNDKFSFHEVKDN [I6W] yielded a protein stability index of 1.79.
GGADILVIKYNVNDKFSFHEVKDN [I6L] gave a protein stability index of 3.33.
In the case of GGADICVIKYNVNDKFSFHEVKDN [I6C], the protein stability index is reported as 1.67.
For GGADIRVIKYNVNDKFSFHEVKDN [I6R], the protein stability index was 3.1.
For GGADIEVIKYNVNDKFSFHEVKDN [I6E], the protein stability index was 3.74.
Variant GFADIIVIKYNVNDKFSFHEVKDN [G2F] has a protein stability index of 3.68.
Work on GAADIIVIKYNVNDKFSFHEVKDN [G2A] yielded a protein stability index of 1.69.
With GYADIIVIKYNVNDKFSFHEVKDN [G2Y] the protein stability index was 2.69.
With GTADIIVIKYNVNDKFSFHEVKDN [G2T] the protein stability index was 2.38.
Variant GLADIIVIKYNVNDKFSFHEVKDN [G2L] has a protein stability index of 1.71.
Variant GCADIIVIKYNVNDKFSFHEVKDN [G2C] has a protein stability index of 1.97.
Work on GDADIIVIKYNVNDKFSFHEVKDN [G2D] yielded a protein stability index of 2.31.
Variant GRADIIVIKYNVNDKFSFHEVKDN [G2R] has a protein stability index of 2.76.
